Assay results taken from publication doi:10.1101/2021.08.07.455519 (bioRxiv, 2021).

Target: BG505 UFO trimer (HIV-1 strain BG505, UniProt Q2N0S6, stabilised)
Assay: BLI

B1: intermediate antibody IA5 of the J038 lineage (antibody, V domains shown)
VH: QLRLQESGPGLVKPSETLSLNCAVSGGSISDAYWSWIRQSPGRGLEWIGRISGRDGYTDYNPSLTSRVTISTDRSKTQVSLRLTSVTAADTAVYFCAREVAEDDYGYYQPYFDSWGQGVLVTVSS
VL: DIQMTQSPSSVSASVGDRVTITCRSSQGIDTDLAWYQHTPGKAPKLLIYHSCGLQSGVPSRFSGSGSGTDFTLTISSLQPEDFATYYCQQYKSLPLTFGGGTKVEVK
Q: Does B1 bind?
A: Result: binds
